Laboratory results reported in patent publication US20240026407A1, “MODIFICATION OF SAPONINS” (GLAXOSMITHKLINE BIOLOGICALS SA, priority 2020, published 2024).

How the values were obtained:
Assay type in all cases: biochemical, Quillaja saponaria
[1] = Experiment 5-2: screening of additional glucosidases for deglycosylation with QS-18 in crude bark extract (80%) at pH 6 and 35 deg C; conditions: CBE 80%, pH 6, 35 deg C, 18 hours; UV HPLC
Protocol: A plate was lysed at pH 6 as described in Experiment 4-2. 40 uL of clarified lysate was transferred to a reaction plate
The pH of CBE was adjusted to pH 6 by dropwise addition of 2M NaOH with stirring. 160 uL of pH 6 CBE was added to each well of the reaction plate. The reaction plate was sealed and incubated at 35 deg C. with shaking for 18 hours.
The reaction plate was quenched by adding 200 uL of MeCN (2% acetic acid (AcOH), 1 mg/mL hexanophenone) to each well of the plates. The quenched reaction plate was re-sealed and incubated at 20 deg C. with shaking for 10 min. The reaction plate was then centrifuged (10 min, 4 degC).
200 uL was transferred from each well of the quenched plate to the corresponding wells of a fresh 96 well plate and sealed. The plate was analysed by UV HPLC with the method of Experiment 4-4.

[2] = Experiment 5-3: screening of additional glucosidases for deglycosylation with QS-18 in treated bark extract (80%) at pH 6 and 35 deg C; conditions: TBE 80% (QS-21 approx. 4 g/L), pH 6, 35 deg C; UV HPLC
Protocol: Experiment 5-1 was repeated, replacing CBE with Treated Bark Extract (TBE) at pH 6. TBE was prepared from CBE by PVPP treatment and concentration, to provide TBE with a QS-21 concentration of approximately 4 g/L. TBE was adjusted to pH 6 by dropwise addition of 2M NaOH with stirring.

[3] = Experiment 5-1: screening of additional glucosidases for deglycosylation with purified QS-18 (0.04 mg/ml) at pH 7.5 and 30 deg C; conditions: pH 7.5, 30 degrees C, 18 hours, LCMS/MS
Protocol: The 94 additional genes, together with positive control (DNA encoding SEQ ID No. 262) and negative control, were transformed, expressed, lysed and reacted in the same manner as described above for Experiment 4-1, except the reaction was incubated at 30 degrees C. for 18 hours.
Samples were analysed by LCMS/MS according to the procedure in Experiment 4-1.

Molecule | Experiment 5-2 % conv [1] [%] | Experiment 5-3 % conv [2] [%] | Experiment 5-1 % conv [3] [%]
886 (protein, listed as Brachyspira suanatina) MNDNKYSQKIKELMKEMTLEEKVSLLSGKDFWSTKAIDRLKIDSVYLTDGPHGVRKQSTESDELSLQKSVSSTCFPTACCSACSFDPNIMYEMGEAISREAKANKVSVVLGPGVNIKRSPLCGRNFEYFSEDPYLAGKMASGWINGLEDNGIQSSLKHFAANNQETLRLIIDSVVDERALREIYLYAFEIAVKEAKPSTVMCAYNSVNGTFASENKYLLTDILRDEWGFDGIVVSDWGAVNDRVEALKAGLDLQMPSTNGEDDRKVYNAVKETIIDEKILDKAVERLLYFSLYSMDNIYDNFDYDKEEHHNIARKIAENSIVLLKNQDKILPAKKESKIAVIGEFAQKPRYQGNGSSLINAYKIDTAEEYFKENNIEFDYAKGYDSNSADIDNALIEEAVNISKDKDIVIIFAGLINSYESEGFDRKHLNLPENHNHLIEEISKVNKNVVVVLSIGAPVLMPWIDKVKGVLNLYLAGEAAVSAAFNIIFGVVNPSGKLAESFPLSLEDNPSYKYFPGGNKAVEYRESIFVGYRYYDKAQKNVLFPFGFGLSYTTFQFSNLIVSDANTIAGLDNIHVVFDIKNTGDVFGCEVAQVYISAPENNVFKPHKELKSFIKVFLEPGETKTVILKLNKRSFSFYNADTKQYEIESGVYTIYIGNSSRNLLLSKTMEINSINYYQKRIDNYFNFKEINISDNEFQQLLGRKLKPINIKASKPYHLNNNLSDLLDNNIAKEFYNKLLSGLNDMFKDDKTDTKKMFESMMLETPLRSLHTMSGGIITREDVENLINTLNK | <0.5 | <0.5 | 55.5
814 (protein, listed as Bifidobacterium reuteri) MSETNATPTYPSVKDLTLEEKASLTSGGDAWHLQSVEHKGIPGYMITDGPHGLRKSLASNTSETDLNDSVPATCFPPAAGLSSSWNPALIRKVGEVMGEECVQEKVAVILGPGVNIKRNPLGGRCFEYWSEDPYLAGHEAVGIVEGVQSKGVGTSLKHFAANNQETDRLRVDARISQRALREIYLPAFEHIVKTAQPWTIMCSYNRINGVHSAQNHWLLTDVLRDEWGFKGIVMSDWGADHDRVASLNAGLNLEMPPSYTDDQIVYAARDGRIDPAQLDRMAQGMIDLTNKARAAMSIDGYRFDVDAHDEVARQAAVESIVMLKNEDAILPIDPAGGKKLAVIGEFARTPRYQGGGSSHITPTKMTSFLDALDERGIKADFAPGFTLDLAPADSALTLEAVETARDADVVLMFLGLPEEAESEGFDRTTLDIPAKQIELLRQVAAENPNVVVVLSNGSVVTVHPWADASKSILESWLLGQAGGRALADVVFGEASPSGKLAQSIPMDINDDPSMLNWPGEEGHVDYGEGVFVGYRYYDTYNKAVDYPFGYGLSYATFEIGDVAVAKTGANTASVTATVTNTSDTPAAETVQVYVAPGKADVARPVHELKGFEKVFLGAGESKTVTIELNERAFAYWSEKYNDWHVEAGEYTVEVGVSSRDIAASIAVTLDGDGKSMPLNEWSTFGEWSADPVGAKVVEAVGAAGERGDMPKLPDNDMMRLFLNSMPINSLPTLLGESGKDLTAFMLDEYAALTK | <0.5 | <0.5 | 58.4
